Measurements taken from US11402384B2 (Duke University, priority 2015, dated 2022).
Positions count from the first letter of the chain named. Numbers in names are those of the source. Where two headings read alike, the source gives them in different places.

B1: A42C Badan: tsGBP2_C42 (SEQ ID NO: 22) Badan conjugate (conjugate)
chain: MKLEIFSWWAGDEGPALEALIRLYKQKYPGVEVINATVTGGCGVNAKAVLKTRMLGGDPPDTFQVHAGQELIGTWVVADRMEDLTSLFRQEGWLQAFPKGLIDLLSYKGGIWSVPVNIHRSNVMWYIPAKLKEWGVTPPKTWAEFLATAQTLKRKGLEAPLALGENWTQQHLWESVALATLGADGWNNLWSGKLKFTDPKAVAVWETFGKVLDAANKDAAGLSWQQAVDRVVQGKAAFNIMGDWAAGYMSTTLKLKPGTDFAWTPSPGTSGIFMMLSDSFGLPKGAKNRQNAINWLKLVGSKEGQDTFNPLKGSIAARLDSDPAKYNAYGQSAMKDWKSNRIVGSLVHGAVAPESFMSQFGTVMEIFLQSRNPQAAANAAQAIANQVGLGRGGSHHHHHH
modifications: Badan conjugate; tsGBP2_C42 (42C substitution mutant with signal peptide replaced with M and a GGSHHHHHH at C-terminus)
B2: W224C Badan: tsGBP2_C224 (SEQ ID NO: 28) Badan conjugate (conjugate)
chain: B1 chain with C42A, W224C
modifications: Badan conjugate; tsGBP2_C224 (224C substitution mutant with signal peptide replaced with M and a GGSHHHHHH at C-terminus)
B3: H66C Badan: tsGBP2_C66 (SEQ ID NO: 24) Badan conjugate (conjugate)
chain: B1 chain with C42A, H66C
modifications: Badan conjugate; tsGBP2_C66 (66C substitution mutant with signal peptide replaced with M and a GGSHHHHHH at C-terminus)
B4: S277C Badan: tsGBP2_C277 (SEQ ID NO: 31) Badan conjugate (conjugate)
chain: B1 chain with C42A, S277C
modifications: Badan conjugate; tsGBP2_C277 (cysteine substitution mutant with signal peptide replaced with M and a GGSHHHHHH at C-terminus)
B5: Q225C Acrylodan: tsGBP2_C225 (SEQ ID NO: 29) Acrylodan conjugate (conjugate)
chain: B1 chain with C42A, Q225C
modifications: Acrylodan conjugate; tsGBP2_C225 (225C substitution mutant with signal peptide replaced with M and a GGSHHHHHH at C-terminus)
B6: S223C Badan: tsGBP2_C223 (SEQ ID NO: 27) Badan conjugate (conjugate)
chain: B1 chain with C42A, S223C
modifications: Badan conjugate; tsGBP2_C223 (223C substitution mutant with signal peptide replaced with M and a GGSHHHHHH at C-terminus)
B7: Q64C Badan: tsGBP2_C64 (SEQ ID NO: 23) Badan conjugate (conjugate)
chain: B1 chain with C42A, Q64C
modifications: Badan conjugate; tsGBP2_C64 (64C substitution mutant with signal peptide replaced with M and a GGSHHHHHH at C-terminus)
B8: W167C Acrylodan: tsGBP2_C167 (SEQ ID NO: 26) Acrylodan conjugate (conjugate)
chain: B1 chain with C42A, W167C
modifications: Acrylodan conjugate; tsGBP2_C167 (167C substitution mutant with signal peptide replaced with M and a GGSHHHHHH at C-terminus)
B9: S223C Acrylodan: tsGBP2_C223 (SEQ ID NO: 27) Acrylodan conjugate (conjugate)
chain: B1 chain with C42A, S223C
modifications: Acrylodan conjugate; tsGBP2_C223 (223C substitution mutant with signal peptide replaced with M and a GGSHHHHHH at C-terminus)
B10: H66C Acrylodan: tsGBP2_C66 (SEQ ID NO: 24) Acrylodan conjugate (conjugate)
chain: B1 chain with C42A, H66C
modifications: Acrylodan conjugate; tsGBP2_C66 (66C substitution mutant with signal peptide replaced with M and a GGSHHHHHH at C-terminus)
B11: W244C Badan: tsGBP2_C244 (SEQ ID NO: 30) Badan conjugate (conjugate)
chain: B1 chain with C42A, W244C
modifications: Badan conjugate; tsGBP2_C244 (244C substitution mutant with signal peptide replaced with M and a GGSHHHHHH at C-terminus)
B12: Q225C Badan: tsGBP2_C225 (SEQ ID NO: 29) Badan conjugate (conjugate)
chain: B1 chain with C42A, Q225C
modifications: Badan conjugate; tsGBP2_C225 (225C substitution mutant with signal peptide replaced with M and a GGSHHHHHH at C-terminus)
B13: S277C Acrylodan: tsGBP2_C277 (SEQ ID NO: 31) Acrylodan conjugate (conjugate)
chain: B1 chain with C42A, S277C
modifications: Acrylodan conjugate; tsGBP2_C277 (cysteine substitution mutant with signal peptide replaced with M and a GGSHHHHHH at C-terminus)
B14: Q64C Acrylodan: tsGBP2_C64 (SEQ ID NO: 23) Acrylodan conjugate (conjugate)
chain: B1 chain with C42A, Q64C
modifications: Acrylodan conjugate; tsGBP2_C64 (64C substitution mutant with signal peptide replaced with M and a GGSHHHHHH at C-terminus)
B15: W167C Badan: tsGBP2_C167 (SEQ ID NO: 26) Badan conjugate (conjugate)
chain: B1 chain with C42A, W167C
modifications: Badan conjugate; tsGBP2_C167 (167C substitution mutant with signal peptide replaced with M and a GGSHHHHHH at C-terminus)
B16: W224C Acrylodan: tsGBP2_C224 (SEQ ID NO: 28) Acrylodan conjugate (conjugate)
chain: B1 chain with C42A, W224C
modifications: Acrylodan conjugate; tsGBP2_C224 (224C substitution mutant with signal peptide replaced with M and a GGSHHHHHH at C-terminus)
B17: H119C Badan: tsGBP2_C119 (SEQ ID NO: 25) Badan conjugate (conjugate)
chain: B1 chain with C42A, H119C
modifications: Badan conjugate; tsGBP2_C119 (119C substitution mutant with signal peptide replaced with M and a GGSHHHHHH at C-terminus)
B18: H119C Acrylodan: tsGBP2_C119 (SEQ ID NO: 25) Acrylodan conjugate (conjugate)
chain: B1 chain with C42A, H119C
modifications: Acrylodan conjugate; tsGBP2_C119 (119C substitution mutant with signal peptide replaced with M and a GGSHHHHHH at C-terminus)

Assay: Ratiometric fluorescence glucose titration of fluorescent conjugates
Format: binding
Set-up: key to Shape (fluorescence response to glucose) / Change (fluorescence response to glucose): m, monochromatic; d, dichromatic (i.e. spectral shape change); 0, no change
Details: tsGBP2 cysteine scan; for Kd: ratiometric fit at λ1 and λ2
Source text: Semi-synthetic FRSs can be engineered by site-specifically attaching thiol-reactive, environmentally sensitive fluorophores that respond to ligand-mediated conformational changes. Identification of FRS candidates that can be used for sensing applications comprises three steps: • 1. Cysteine scan. Mutant glucose-binding proteins containing single cysteines are constructed for site-specific attachment of thiol-reactive fluorophores. […] Candidate positions fall into three classes: endosteric, replacing a residue that contacts the ligand directly; peristeric, located at the rim of the binding site; allosteric (Marvin et al., 1997, Proc Natl Acad Sci USA, 94, 4366-71; Marvin, 1998, J Am Chem Soc, 120, 7-11), located outside the binding site at sites that undergo local structural changes in concert with the hinge-bending motion. • 2. Fluorophore screening. Thiol-reactive, environmentally sensitive fluorophores are attached to each cysteine mutant prepared in step 1. • 3. Evaluation of the glucose-mediated change of all the fluorescent conjugates prepared in step 2. Responses to ligand binding in which there is both a change in fluorescence emission intensity and spectral shape are essential for chemometric applications, because such changes enable ratiometric measurements. Changes in spectral shape typically are accompanied by a shift in the wavelength of the emission intensity maxima. Three classes of fluorescent responses are possible: • i. No response. • ii. Monochromatic response (emission intensity increases or decreases without a change in spectral shape) • iii.
Determination of temperature- and ligand-dependent fluorescence landscapes. […] Temperatures were advanced in 1K steps.
Determination of emission intensity spectra.
2 For a single glucose-binding site, the fractional saturation is given by […]

[1] = Acrylodan conjugate, read-out: Kd ^appKd
[2] = Acrylodan conjugate, read-out: Kd ^trueKd

Row | Molecule | Shape (fluorescence response to glucose) (Badan conjugate) | Shape (fluorescence response to glucose) (Acrylodan conjugate) | other results
1 | B1 | m | – | –
2 | B2 | 0 | – | –
3 | B3 | m | – | –
4 | B4 | 0 | – | –
5 | B5 | – | m | –
6 | B6 | m | – | –
7 | B7 | m | – | –
8 | B8 | – | d | Kd [1]: 20 µM; Kd [2]: 20 µM
9 | B9 | – | 0 | –
10 | B10 | – | d | –
11 | B11 | m | – | –
12 | B12 | m | – | –
13 | B13 | – | 0 | –
14 | B14 | – | 0 | –
15 | B15 | m | – | –
16 | B16 | – | m | Kd [1]: 700 µM; Kd [2]: 900 µM
17 | B17 | m | – | –
18 | B18 | – | m | Kd [1]: 20 µM; Kd [2]: 20 µM
